Reference: the DeepSol protein solubility set

assay: soluble on expression in E. coli; label from the status in PepcDB or PDB records

Row | Sequence | soluble on expression in E. coli
1 | MFSWQEFTERDVSLFTENVIRSLINTKYNVICHIEDYTPPQFDSFLQLSACYNIGEKTEDEVINSDGIRWSKKKDSLGSEMKPRKNTISVDGRTFRRINCSSPPPATNLFKKYMAIEEATKLCWILFLGSSHDVIDYTSLKVARKKLSKEEALMIRKMLEGRTVLMVYQMLGGKYSKRQIKDQQRNVLTTVKLNRGPRPVTNPADLCDLSRMFSHAYHSSHRNSIRFIYFNKSMLGLFLKSCPTYTEITTYRNRMDGIENWRTADLNKHLADCKVYTCGGIDTRVASIIELDTTFGLSNGYISVTTGFIPVFRTRQHTKSSPSKLRHVVLGFMFHSSKHKSHFEDFSGRLNEILQELDPKKIKKIQL | not soluble
2 | MFTGIVQGTAPIHSIKEKANFRTQVVKLLPEMRKDLEIGASIANNGVCLTVTEINGDLVSFDLMQETLKITNLGTVKVGDYVNIERAMQMGTEIGGHLLSGHIYCTAKISDIIASENNRQIWFELPSADVMKYILTKGFVAVDGISLTIGEVRDTQFCVNLIPETLQRTLMGRRKVGDIVNIEIDPQTQAIVDTVENYLQSKNFLEHHHHHH | soluble
3 | MFTKSHLALVIGAVLAAPAVANVQTDEHLVVEGREFGYKADTNSTAMRMEMTQLETPGQVAVIDETVIDEQRASTLGEVLRNDASVSAGGTSRNRERFSLRGFELSSSDGFLRDGRQHWSHYRQPIEL | not soluble
4 | MFTQQRLRPNTQELLKETNHLCEAFAISESILARYQRNNRQLSESEKKAFASLLLRVPHDFLTETVASLGTSKTSSIGPTTDLGSLIDNVFGFGKPLKDVFQLLNQELGNCLNSPRCRVYYLDPTDNLLKDPVYATASTLDETTPLGKAVLTGIQREIAGTLYLPLSFEGKVIACVESAWGSPEKGDKRRIKETLQFVACAMHNAIESERLRWNKEKAEAMLEMATQLARDNLDEAVLANSIMNTAKVLTESDRCSIFLVKDDTLEAHFEDGNIVAIPIATGIAGYVAQTGQTVKISDAYSDDRFNREVDKATGYRTKTILCMPVTYEGSIVAVAQLINKLDMVTESGLRLPRTFGKRDEELFQTFSMFAGASLRNCRINEKLINEKRKSDAILDVVTLLSNTDIRDVDGIVRHVLHGAKRLLYADRSALFLVDKERNELYSRIADSVAGKEIRFPCGQGIAGIVASTGIGENILDAYQDPRFNREVDKQLGYRTQTLLCEPIVLNGEILAVVQLVNKLNEAGEVTVFTESDRETFRVFSLFAGISINNSHLLEFAVKAGREMMELNENRALAGGRTGSLRNIKRPLAITEAERQAVRDINLAHLDITSIDFDLFYLRENMELPLDAAAAVAYRLIVGTGLPQKFRCRDDTLLNFILQCRKKYRNVPYHNFYHVVDVCQTVYTFLYKGAVCEKLTELDCFVLLVTALVHDLDHMGLNNSFYLKTDSPLGILSSASGNASVLEVHHCNLAVEILSDPDSDVFEGLDAADRTLAYRSMIDCVLATDMAKHGKSLESFLSVLGNPETSEQRIAELTMQIVLKAGDVSNVTKPFDISRLWAMAVTEEFYRQGDMEKEKGVEVLPMFDRSKNTELAKGQIGFIDFVAGPFFKKIVSASLTGMQWTVERVESNRLEWQRSLDAK | not soluble
5 | MFVFGAYWFDCGERAVLPANSRGALRPQCTRLRFWRGRYWHRGAVSALRRVRPLSASTPSPRVLDGSQSLADTPDNVQQLLQHMSQELDSVVQSMVHLEEYALEQVEKLKGAMEADLRKLALYEEEQAFAQKLTEQLQKKEGAVFEAMRHFLFHVVGLQEQTVAITNELQVLHEFVSENHERVELVLESLRERGLFGSRQDVFEGEVKKKLDRFDPEI | not soluble
6 | MFVRLFYTLRKYGVPVTTRELIDLNRAVAEGLVFADQDEFYQLAKTILVKDERFFDKFDRAIKDYFEGIETFDLDELLKQVQKIPKEWLDLELLEKHLTPEQREALQKAGSLEELMKMLEERLREQHKKHQGGNRMIGTGGTSPFGAFGDHPEGVRIGGPGRKRSAVKVWEQRKYQNLDDDQILGTRQMQLALRRLRKFARQGAADELDVDNTIRETAKQGILNVQMVPERRNRIKVLMLFDVGGSMDSHIAQCEKLFSAAKTEFKTLEYFYFHNCLYDYVWKDNHRRQASRLETWDLFHKYGRDYRVIVVGDASMAPYELRSAGGSVEYMNDEAGEIWLRRLRQHFDKTAWLNPEEEGYWKYTQTIGLIQQLFENHMYPMSLKGIEDMTRYLS | not soluble
7 | MFYCRSGFEKECAGEIQDKATQLEVFGFPRLKNNTGYVLFECYQEGDADRLIREIKFNELIFARQMFAVAAEVSDLPKDDRISPILDALSDVDGVPCCGDIRIETPDTNEAKELLKFCRKFTVPMRQALRGKKMLTERDSNRIPVLHICFIAPGHCYVGYSYTNNNSQFFMGIPRLKFPADAPSRSTLKLEEAFHVFIPKEEWDDRLASGMWGVDLGACPGGWTYQLVKRSMFVHAIDNGMMAQSLMDTGQVKHHMVDGFKFEPPRKNVTWLICDMVEKPARVAHLMGEWLIKGWAKEALFNLKLPMKGRYDEVLQDIENLKDFLKKNGFQYKLQAKHLYHDREEITVHIQAISNISPH | not soluble
8 | MFYYVEILGTLPEMGKAEVEALAELGVGNVEKVDYLLVSGSVKHIGVFERLGLAHEYGLLLYEGDDIKDILDFAKGLEWRNIINGTFAVRRERMRNCMHEVNDLDKKIGGIIHSQGLRVNLSRPDTVVRVYCGNKIWLGIRIREFKGKEFEDRKADRRPFSRPIALPPRIARAMVNLTKATREVLDPFMGTGGMLIEAGLIGLKVYGLDIREDMVEGAKINLEYYGIRDYVVKVGDATKIEEVFPGKTFEAVATDPPYGNSTTLPMDRNELYKRSLESIHSVLEGRLAIAFPADFDARDVAESIGFKVLGRFYQRVHSSLSRYFYVMEV | soluble
9 | MGAKDKATGKSWSDVQQRLQQFHSQEFLNSLRGTTQFAGTDYRSKDLTPKKSRLLADTISAVYLDGYES | not soluble
10 | MGALERFGVDFITVDQGNGQWDIQAIEINLRKGGTTHPFMTLKLLTNGRYELSTGLFYSQQGRPKYYIATDNLQKDRYRGLLPNDLMDIIAHHRLHFDSCTETGTVFHLMGCLSQFGKLGLTSIGDSPQQAEDIYNKVVKVLDEETRVNNKQFPLFSDYTFPNLEHHHHHH | not soluble
11 | MGASRMTEIIDISLDITEDTVVMPENPEFDKERLASIGKEGYELYKICMSNHIGTHIDAPAHFVSEGALINQLDLDTLMGKALVVEIKDEHKISVDELKRVNLKDNIRLLFKTRNSELIAENKLTKDFVYIEEQAAGHLVKNGVKLIGLDYFTIDRIEDQDKPAHKEFAGNGVVVIEGVNLLNVEPGEYELVALPIKINADGAPARVILRRLEHHHHHH | soluble
12 | MGCVSSTSRSTGYYSGYESHEEPRAASRPTNSDDRGYETDSEPSSGNLIPNARSVYSESVLWHGTSMQSKIDLRSKGFDAGRKTGGATAGGNANMFMNLSREAQSETRRHHYLSSSQKEAKDFAMFADTSNPTLVRTIGVRNNLSLITDPRTGGTALMTDQSIPRKFVLGSKSSAPGENAKVFRDEMRAAGHNVSTKQAGELLREVQSDS | not soluble
13 | MGDDLPDWRNKLEPVFLEFEDGCVPEEHYYPCIRRREDEEPKISAEEEYYLMVKEVEDSKGFDIDFAKFRCVFNYRPVDLDDNELALEPETTREFMDRLCRKSLEHFNEIHSTKYEFVRFIKANHHVSAGMMYFITFEGKLLSNDDDSKQFQAKLCYCGGTPEIISCELKP | soluble
14 | MGELNKSARQIVEAVGGAENIAAATHCVTRLRFALIDESKVDQEMLDQIDVVKGSFSTNGQFQVVIGQGTVNKVYAELVKETGIGESTKDEVKKASEKNMNPLQRAVKTLADI | soluble
15 | MGEQPIFTTRAHVFQIDPNTKKNWMPASKQAVTVSYFYDVTRNSYRIISVDGAKVIINSTITPNMTFTKTSQKFGQWADSRANTVFGLGFSSEQQLTKFAEKFQEVKEAAKIAKDKTQEKIETSSNHSQASSVNGTDDEKASHAGPANTHLKSENDKLKIALTQSAANVKKWEIELQTLRESNARLTTALQESAASVEQWKRQFSICRDENDRLRNKIDELEEQCSEINREKEKNTQLKRRIEELEAELREKETELKDLRKQSEIIPQLMSECEYVSEKLEAAERDNQNLEDKVRSLKTDIEESKYRQRHLKVELKSFLEVLDGKIDDLHDFRRGLSKLGTDN | not soluble
16 | MGEQPIFTTRAHVFQIDPSTKKNWVPASKQAVTVSYFYDVTRNSYRIISVDGAKVIINSTITPNMTFTKTSQKFGQWADSRANTVFGLGFSSELQLTKFAEKFQEVREAAR | soluble
17 | MGFKQDIATIRGDLRTYAQDIFLAFLNKYPDERRYFKNYVGKSDQELKSMAKFGDHTEKVFNLMMEVADRATDSVPLASDANTLVQMKQHSSLTTGNFEKLFVALVEYMRASGQSFDSQSWDRFGKNLVSALSSAGMK | soluble
18 | MGGGEVKMMSLLEEMKGIYSKKGGKVKPFEKFEGELKEGYRFEYEKKLCEIDVAMFGLISGDLNPVHFDEDFASKTRFGGRVVHGMLTTSLVSAAVARLPGTVVLLEQSFRYTSPVRIGDVVRVEGVVSGVEKNRYTIDVKCYTGDKVVAEGVVKVLIW | soluble
19 | MGHHHHHHGGHMSLDMKLQQVQVLKPQLTQELRQAITLLGYHSAELAEYIDELSLENPLIERKETDTPPLSYHKTNKNRMNAQEAGLQLSNPQKTLQDALKQQSLDMNLTNTEKKIFNYLIHSLDSNGYLEEDIEEAARRLSVSAKEAEAVLAKLQSLEPAGIGARSLQECILLQLQRLPNRNEQAEMLVSAHFDAFAQKKWKTLSVETGIPLHTIQDISDDIAALHPRPGLLFARPEQDVYIEPDIFITVKNGHIAAELNTRSFPEIDLHPQYRTLLSSGSCQDTVSYLSAKYQEWRWLSRALRQRKQTITRIINELITRQKDFFLKGRSAMKPLTLREVADCLSLHESTVSRAIKGKTIQTPYGLFEMKLFFSAKAEASGDGDASNYAVKTHLENLINQEDKTKPLSDQKLVDLLYEQHGIQISRRTVAKYRDQMNIPSSAARKRYKEGGS | soluble
20 | MGHHHHHHGGHMSLEEVLEAAEKIRSMEVRGAARIARFAAETLMKFAEKASDEKFDEEMRFAAETLLNTRPTAVSLYNAINYVMRYSGESVEEKRQSVIRRAREFINWVETAQRKIGEIGEKRIKDGYTVMTHCNSSAALSVIKKAHENGKRVEVIATESRPRWQGHLTVKQLREAGIEVTLIVDSAVRYFINEVDCVVVGADTITANGALINKIGTSQIALAAKEARVPFMVAAETYKFSPKTLFGELVVIEERDAREVAPEEILKLGVKVRNPAFDVTPRDYIDVIITEIGAIPPEMAYIVITERLGYAGIEEEEITLNSRHFDEGGS | soluble
21 | MGHHHHHHGGHMSLENLNSYIKGHFADSILVKEQILKDENLITLIKNASLEVIKAYKNGNKTLLAGNGGSAADAQHIAGEFVSRFYFDRPGIASIALTTDTSILTAIGNDYGYENLFARQVQAQGVKGDVFIGISTSGNSKNILKALEFCKQKEIISIGLSGASGGAMNELCDYCIKVPSTCTPRIQEAHILIGHIICAIVEEELFGKGFSCKQEGGS | soluble
22 | MGHHHHHHGGHMSLIAITGATGQLGHYVIESLMKTVPASQIVAIVRNPAKAQALAAQGITVRQADYGDEAALTSALQGVEKLLLISSSEVGQRAPQHRNVINAAKAAGVKFIAYTSLLHADTSPLGLADEHIETEKMLADSGIVYTLLRNGWYSENYLASAPAALEHGVFIGAAGDGKIASATRADYAAAAARVISEAGHEGKVYELAGDSAWTLTQLAAELTKQSGKQVTYQNLSEADFAAALKSVGLPDGLADMLADSDVGASKGGLFDDSKTLSKLIGHPTTTLAESVSHLFNVNNEGGS | soluble
